Assay results as given in patent publication US20260242478A1 (published 2026).
Where no end group is shown, it is not given here.

B1: Phage-135 (peptide)
peptide: MDWCPKFLWHECFS
notes: tested as crude clonal phage supernatant; also called position 7 is F in the position column
B2: Phage-132 (peptide)
peptide: MDWCPTYLWFECFN
notes: tested as crude clonal phage supernatant
B3: Phage-169 (peptide, not shown: large carriers)
peptide: MDWCPRDLWNVCFN
modifications: cysteine pairing not given here; also: displayed as fusion to phage pIII, linker and pIII sequence not given here
notes: Clonal phage of the Peptide-9 library
B4: Phage-81, clonal phage peptide … (peptide)
peptide: MDWCPRFLWSVCFN
notes: tested as crude clonal phage supernatant; not shown: pIII of the bacteriophage to which the peptide is fused
B5: Phage-134 (peptide)
peptide: MDWCPSYLWHECFA
notes: as for B2
B6: Phage-119 (peptide)
peptide: MDWCPRYLWHMCYS
notes: as for B2
B7: Phage-145 (peptide, not shown: large carriers)
peptide: MDWCPKHLWIECFA
modifications: cysteine pairing not given here; also: fused to phage pIII protein, pIII and linker sequence not given here
notes: as for B3
B8: Phage-142 (peptide)
peptide: MDWCPVILWDFCFN
notes: tested as crude clonal phage supernatant; also called position 11 is F in the position column
B9: Phage-148 (peptide, not shown: large carriers)
peptide: MHWCPEYLWNECFA
modifications: cysteine pairing not given here; also: displayed as fusion to phage pIII, linker and pIII sequence not given here
notes: as for B3
B10: Phage-121 (peptide)
peptide: MDWCPRDLWHVCFF
notes: as for B2
B11: Phage-141 (peptide)
peptide: MDWCPRSLWNVCFF
notes: as for B2
B12: Phage-80, clonal phage peptide MDWCPMYLWNECFS (peptide)
peptide: MDWCPMYLWNECFS
notes: as for B4
B13: Phage-140 (peptide)
peptide: MDWCPMDLWDVCFN
notes: as for B2
B14: Phage-128 (peptide)
peptide: MDWCPRDLWIECFF
notes: as for B2
B15: Phage-138 (peptide)
peptide: MDWCPTNLWHECFA
notes: as for B2
B16: Phage-125 (peptide)
peptide: MDWCPVSLWHVCFY
notes: as for B2
B17: Phage-130 (peptide)
peptide: MDWCPRYLWDACFF
notes: as for B2
B18: Phage-122 (peptide)
peptide: MDWCPRDLWDQCYA
notes: as for B2
B19: Phage-143 (peptide)
peptide: LDWCPLNLWDLCYF
notes: as for B2
B20: Phage-147 (peptide, not shown: large carriers)
peptide: MHWCPRDLWVVCFN
modifications: cysteine pairing not given here; also: fused to phage pIII protein, pIII and linker sequence not given here
notes: as for B3
B21: Phage-120 (peptide)
peptide: MDWCPRDLWHACFS
notes: as for B2
B22: Phage-137 (peptide)
peptide: MDWCPRYLWHECFH
notes: as for B2
B23: Phage-118 (peptide)
peptide: MDWCPRHLWDECFF
notes: as for B2
B24: Phage-133 (peptide)
peptide: MDWCPRFLWDECFF
notes: as for B1
B25: Phage-124 (peptide)
peptide: MDWCPRPLWDMCFF
notes: as for B2
B26: Phage-144 (peptide)
peptide: MDWCPRHLWYACFN
notes: as for B2
B27: Phage-126 (peptide)
peptide: MDWCPRFLWNECFN
notes: as for B2
B28: Phage-136 (peptide)
peptide: MHWCPIYLWDECFN
notes: as for B2
B29: Phage-127 (peptide)
peptide: MDWCPRALWNECFA
notes: as for B2
B30: Phage-146 (peptide, not shown: large carriers)
peptide: MDWCPRHLWSECFY
modifications: cysteine pairing not given here; also: fused to phage pIII protein, pIII and linker sequence not given here
notes: as for B3
B31: Phage-123 (peptide)
peptide: MDWCPIHLWNECFA
notes: as for B2
B32: Phage-139 (peptide)
peptide: MDWCPRDLWDVCFA
notes: as for B2
B33: Phage-129 (peptide)
peptide: MDWCPSYLWTVCFA
notes: as for B2
B34: Phage-131 (peptide)
peptide: MDWCPRSLWIYCFN
notes: as for B2
B35: Phage-166 (peptide, not shown: large carriers)
peptide: MDWCPRHLWDLCFA
modifications: cysteine pairing not given here; also: displayed as fusion to phage pIII, linker and pIII sequence not given here
notes: as for B3

Tests used:
[1] = target: T1, Anti-CD28 scFv (VH - linker 1 - VL) (biotinylated (site not stated)); experiment: clonal phage ELISA on biotinylated anti-CD28 scFv captured on neutravidin plates, anti-M13 HRP detection;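 also: crude phage supernatants were used, and before phage were added the wells were pretreated with blocking buffer, either alone or with soluble CD28 protein, without washing in between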
T1 sequence (scFv, as listed by the source): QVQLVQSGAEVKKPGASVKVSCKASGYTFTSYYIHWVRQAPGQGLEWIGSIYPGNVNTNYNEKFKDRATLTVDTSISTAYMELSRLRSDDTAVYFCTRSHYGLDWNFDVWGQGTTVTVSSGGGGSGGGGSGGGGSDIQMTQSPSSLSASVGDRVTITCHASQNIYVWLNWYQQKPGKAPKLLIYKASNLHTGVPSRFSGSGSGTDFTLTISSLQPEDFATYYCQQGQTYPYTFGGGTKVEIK

[2] = target: T1, Anti-CD28 scFv (VH - linker 1 - VL); experiment: clonal phage ELISA on captured anti-CD28 scFv, wells pre-incubated with soluble CD28 as competitor;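 also: crude phage supernatants used, bound phage read out via HRP-linked anti-M13 antibody, with comparison wells given blocking buffer lacking soluble CD28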
Experimental: (§1) Clonal phage were harvested as crude supernatants and screened via standard enzyme linked immunosorbent assays (ELISAs). […] Prior to the addition of clonal phage, wells were incubated with blocking buffer and CD28 soluble protein or blocking buffer alone. Without washing or aspirating, clonal phage supernatants were then added to the wells and incubated for a short time. Wells were then washed followed by detection of bound phage using a horse radish peroxidase conjugated anti-M13 antibody.

[3] = target: T2, anti-CD28 scFv (VH - linker 1 - VL) (biotinylated (site not stated)); experiment: phage ELISA; biotinylated anti-CD28 scFv on neutravidin plate, clonal phage supernatant, anti-M13-HRP detection;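 also: before phage addition, wells were pretreated with soluble CD28 protein in blocking buffer, or with blocking buffer only as the comparison, then phage were added without washing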
T2 sequence (scFv, as listed by the source): as above

[4] = target: T2, anti-CD28 scFv (VH - linker 1 - VL); experiment: phage ELISA as above, wells pre-incubated with soluble CD28 (competitor);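 also: ELISA of crude clonal phage supernatants added to wells pre-treated with soluble CD28 in blocking buffer, bound phage read out with HRP-conjugated anti-M13 antibody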
Experimental: as §1

[5] = target: anti-CD28 scFv (VH - linker 1 - VL) (biotinylated (site not given)); experiment: phage ELISA as before, wells pre-incubated with soluble CD28 (competitor)
Sequence of anti-CD28 scFv (VH - linker 1 - VL) (biotinylated (site not given)) (scFv, as listed by the source): as above

Binder	CD28 scFv signal [1]	CD28 scFv signal in presence of CD28 [2]	CD28 scFv signal [3]	CD28 scFv signal in presence of CD28 [4]	CD28 scFv signal in presence of CD28 [5]
B1	2.28	0.142	–	–	–
MDFCPISLWHECFF (peptide, not shown: large carriers, Clonal phage of the Peptide-9 library) [Phage-151]	–	–	1.58	0.129	–
B2	2.33	0.224	–	–	–
MDWCPRDLWNVCFA (peptide, not shown: large carriers, Clonal phage of the Peptide-9 library) [Phage-154]	–	–	1.38	0.145	–
B3	–	–	0.74	0.108	–
MDWCPRDLWAVCFA (peptide, not shown: large carriers, Clonal phage of the Peptide-9 library) [Phage-149]	–	–	1.67	0.089	–
B4	–	–	–	–	1.15
MDWCPRHLWNVCFS (peptide, not shown: large carriers, Clonal phage of the Peptide-9 library) [Phage-150]	–	–	1.61	0.176	–
MAWCPMNLWDQCFF (peptide, not shown: large carriers, Clonal phage of the Peptide-9 library) [Phage-159]	–	–	1.2	0.145	–
B5	2.28	0.198	–	–	–
B6	2.42	1.17	–	–	–
MDWCPKYLWDKCFH (peptide, not shown: large carriers, Clonal phage of the Peptide-9 library) [Phage-152]	–	–	1.54	0.109	–
MHWCPRALWHECFN (peptide, not shown: large carriers, Clonal phage of the Peptide-9 library) [Phage-160]	–	–	1.18	0.144	–
B7	–	–	1.98	0.132	–
B8	2.03	0.173	–	–	–
B9	–	–	1.69	0.092	–
B10	2.41	0.268	–	–	–
MHWCPLHLWNECYH (peptide, not shown: large carriers, Clonal phage of the Peptide-9 library) [Phage-155]	–	–	1.37	0.113	–
B11	2.13	0.356	–	–	–
B12	–	–	–	–	0.411
B13	2.15	0.263	–	–	–
B14	2.37	0.137	–	–	–
B15	2.16	0.096	–	–	–
B16	2.4	0.409	–	–	–

Binder	CD28 scFv signal [1]	CD28 scFv signal in presence of CD28 [2]	CD28 scFv signal [3]	CD28 scFv signal in presence of CD28 [4]	CD28 scFv signal in presence of CD28 [5]
B17	2.34	0.168	–	–	–
B18	2.41	0.201	–	–	–
B19	2.03	0.095	–	–	–
MDWCPRSLWSYCFH (peptide, not shown: large carriers, Clonal phage of the Peptide-9 library) [Phage-157]	–	–	1.33	0.152	–
B20	–	–	1.83	0.112	–
B21	2.41	0.173	–	–	–
B22	2.19	0.308	–	–	–
B23	2.46	0.663	–	–	–
B24	2.28	0.246	–	–	–
MDWCPKHLWHQCFH (peptide, not shown: large carriers, Clonal phage of the Peptide-9 library) [Phage-156]	–	–	1.35	0.108	–
B25	2.4	0.138	–	–	–
MDWCPRYLWTECFF (peptide, not shown: large carriers, Clonal phage of the Peptide-9 library) [Phage-158]	–	–	1.26	0.244	–
B26	2.01	0.159	–	–	–
B27	2.4	0.503	–	–	–
B28	2.23	0.193	–	–	–
B29	2.38	0.375	–	–	–
B30	–	–	1.92	0.199	–
B31	2.4	0.203	–	–	–
B32	2.16	0.28	–	–	–
B33	2.34	0.096	–	–	–
B34	2.34	0.401	–	–	–
B35	–	–	0.925	0.096	–
MDWCPRHLWDLCFF (peptide, not shown: large carriers, Clonal phage of the Peptide-9 library) [Phage-153]	–	–	1.4	0.182	–
MDWCPRHLWDQCFA (peptide, not shown: large carriers, Clonal phage of the Peptide-9 library) [Phage-161]	–	–	1.12	0.144	–
